# Data: patent US20240382587A1 (TRUSTEES OF INDIANA UNIVERSITY, published 2024)
# T1: recombinant human B domain deleted (BDD)-FVIII (Xyntha) (human, UniProt P00451 20-2351)
# T1 sequence (looked up): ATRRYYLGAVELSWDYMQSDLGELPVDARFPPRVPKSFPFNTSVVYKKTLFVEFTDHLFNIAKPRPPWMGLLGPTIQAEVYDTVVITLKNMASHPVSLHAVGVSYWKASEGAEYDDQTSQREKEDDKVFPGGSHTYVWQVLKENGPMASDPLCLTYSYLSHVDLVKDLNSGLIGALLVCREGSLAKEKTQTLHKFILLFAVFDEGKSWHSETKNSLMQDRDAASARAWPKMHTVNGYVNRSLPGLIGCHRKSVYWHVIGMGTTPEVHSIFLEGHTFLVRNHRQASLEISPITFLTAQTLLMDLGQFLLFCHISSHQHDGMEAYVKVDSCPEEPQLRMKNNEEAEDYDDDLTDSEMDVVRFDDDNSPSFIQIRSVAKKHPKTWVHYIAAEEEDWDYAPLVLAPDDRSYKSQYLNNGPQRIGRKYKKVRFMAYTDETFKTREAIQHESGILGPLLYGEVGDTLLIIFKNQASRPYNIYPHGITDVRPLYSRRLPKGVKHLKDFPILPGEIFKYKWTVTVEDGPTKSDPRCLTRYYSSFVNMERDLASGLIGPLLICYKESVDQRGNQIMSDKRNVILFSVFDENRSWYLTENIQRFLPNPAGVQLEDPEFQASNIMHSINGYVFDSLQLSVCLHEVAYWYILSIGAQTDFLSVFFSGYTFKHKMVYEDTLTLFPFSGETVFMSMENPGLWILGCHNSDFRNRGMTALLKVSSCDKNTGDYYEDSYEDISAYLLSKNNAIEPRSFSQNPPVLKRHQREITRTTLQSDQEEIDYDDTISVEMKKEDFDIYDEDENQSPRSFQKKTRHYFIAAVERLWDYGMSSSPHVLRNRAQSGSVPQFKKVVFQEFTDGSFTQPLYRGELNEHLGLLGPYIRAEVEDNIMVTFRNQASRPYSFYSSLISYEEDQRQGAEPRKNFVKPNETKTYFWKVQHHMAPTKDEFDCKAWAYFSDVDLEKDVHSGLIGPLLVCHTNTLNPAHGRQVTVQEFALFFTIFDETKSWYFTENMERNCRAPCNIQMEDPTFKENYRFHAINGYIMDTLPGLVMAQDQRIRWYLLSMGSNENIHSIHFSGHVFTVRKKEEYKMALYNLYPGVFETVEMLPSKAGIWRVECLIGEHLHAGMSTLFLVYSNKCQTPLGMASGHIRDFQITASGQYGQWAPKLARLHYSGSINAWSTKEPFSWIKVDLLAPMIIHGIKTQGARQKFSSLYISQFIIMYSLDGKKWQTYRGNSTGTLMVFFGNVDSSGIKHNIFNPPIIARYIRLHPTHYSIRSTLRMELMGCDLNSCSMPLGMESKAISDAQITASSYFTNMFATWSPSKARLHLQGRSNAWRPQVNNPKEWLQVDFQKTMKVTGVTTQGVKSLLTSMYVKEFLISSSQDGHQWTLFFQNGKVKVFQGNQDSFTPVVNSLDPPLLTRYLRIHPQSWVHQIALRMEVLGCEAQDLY
# B1: FVIII TRUC (TCR fusion construct: BO2C11 FVIII scFv fused to the N-terminus of murine CD3 epsilon) (scFv)
# chain: EIALTQSPGTLSLSPGERATLSCRASQSFSSSYLAWYQQKPGQAPRLLIYGASTRATGIPDRFSGSGSGTDFTLTISRLEPEDFAVYYCQKYGTSAITFGQGTRLEIKGGGGGSGGGGSGGGGSQVQLVQSGAEVKKPGASVKVSCKVSGYTLTELPVHWVRQAPGKGLEWVGSFDPESGESIYAREFQGSVTMTADTSTDIAYMELSSLRSDDTAVYYCAVPDPDAFDIWGQGTMVTVSSGGGGSGGGGSGGGGSDAENIEYKVSISGTSVELTCPLDSDENLKWEKNGQELPQKHDKHLVLQDFSEVEDSGYYVCYTPASNKNTYLYLKARVCEYCVEVDLTAVAIIIIVDICITLGLLMVIYYWSKNRKAKAKPVTRGTGAGSRPRGQNKERPPPVPNPDYEPIRKGQRDLYSGLNQRAV
# Molecular target: T1, recombinant human B domain deleted …
# Assay: cell-based or functional assay
binder,measurement,value
B1,CTLA4 expression in TRUC Tregs in vitro,5 fold
